Data taken from the domain aggregation screens of Martell et al. (2025).

Test: soluble fraction after stress (log2 fold change); higher = more stays soluble; pooled small domains, quantitative proteomics
Details: stress: 50 degC
Method in brief: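 Each library was heated to 50°C as a stress step. The libraries, made up of small protein domains, were pooled and analysed at high throughput by quantitative proteomics. The reported value is the base-two logarithm of the fold change in each protein's soluble amount after stress, taken as a measure of aggregation propensity. The higher the value, the more protein stays in solution.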

Sequence | soluble fraction (log2)
HMIVIMAKESSPAELEGVKNRIESHPGLRPQVFDGVERIVVGVLGSIPPDLKDEIELLPGVIEVVPISK | -0.0582
HMSRLLERARDLMAKPGAWLSAEGGAYALRLSPDRRSRISLTLTETEFRALIDQPGLRVRPGGGWSGRA | -3
HMETDNEKVRTAFQNGLAAYREQDWDRAEAAFGAVLAEMPEDRPSLVYLERIAHLRKKAPPGAWDGVWI | -0.0616
HMAKTALEQAQAMVAAYVAAEQQILLGKEVRMGGPGIDRWLRFEDLQEVRAGRKEWESTVTRLQNTAA | -0.404
HMTETFVLNLRQPIAAAPVLPGYRVARTDEQTLEVEVSKDQNLNEIFTALSALGVEVLSMRNK | -0.12
HMDKIEVVEVDMSKPYEDMTVTELQNVILDKLASNGPVTNQMKKDVSENIYHDSLVNWAKSF | 0.0697
HMAESSLPKMPRDESKYIYHSVQPGETVYSLSKRYSVSESDIVKSNPGIDITKLSLGLEVAIPRI | 0.354
HMNVDIVEITKNSSPNQISKVIDIGAIQIVEDLMSFGIMKAIDTPLEDSEIEQLLEKYNLIVDLIE | -2.33
HMPMINLYQRLNLPPTASRAEIEAALAQYRSELSTAEIRGVQEWLLVNEVRHRYDAKLRQEQPSFFI | -0.471
HMNTDIHRLLDEAFVRVDMTPDAQHLKEEIRANLVARVDELEASGVPSADAARRAIAELGDVRELL | 0.17
HMGVDMAPESIVGKKGVAATELRPAGKVEIHGQVYDAVSVGMFIKRGTGVKVVRYEAAQIYVEPE | 0.146
HMPIGENIKRLRIMHGLSQKELAQIAGVSDKAVSTWENGTKEPRMGAVQKITGYFGLKKSNLIEDNGL | -0.0331
HMIIVMASSKKEDVAHVVHKIEELGYKAHVIVGVERTVVAAVGDERGKERLISLEALPHVEKVFPILK | -0.055
HMDSADADLLRRIEDLLSSRRSVIREARLADMLGVPRDQVARALDLLQERGVIGLTTDSGMKRIAFRRN | -0.0756
HMEEIQLILAKNLKSIREKEKLSLEKVSQLTGVSKTMIGQIERGDSSPTLTTIWKIANGLKVSFTSLINNP | -2.01
HMTIDTSNDLLNQITEATSKGPISILELKDQLNVNASDIEGELRTLIDQHLVFLKDGMLQVIPFD | -0.0624
HMRTQEELVAEVREQMEAMGTIATLYVELYESSEERLVGGVIFEDERHYRFVYEDGLLHYEEEK | -0.206
HMVKSIDEIYNEAVKSLANEDYDAAKKLFNYLINNFSDPDKFPLSLFWLAEIEFSSSNFDASKNYYMQ | 0.0746
HMAVPMTPGELVGSRVRVLWWKDGRGEVVALARGHQATLPARSEEPLRTGADAVVLEADEGTLVVTS | -0.0203
HMENIEVDFGVGDTVSVIGGAWKDTVGVVQAMNPNKQSLTINVELFGRETPVEISFTDVQKM | -0.0126
HMSEKLLTLNEISEKLRVSRHTVQAWVSPSSPNHRPEFSSLARHAGRKTVFLESDVDAWLAQRR | -0.839
HMQPKKLNMYYDYVRQLLESHPYLSAAQIEDRLKEEFTELPMVHSKTVFNFVENIRLQHGINKHA | -0.152
HMILNPADEEKMNLINFELQQRGLEINDKEMQYIFTHHSRDLNSLLNLAEKLDEISHQEKKSISINLIKKI | -0.0218
HMKILALETSAKAVSAAVSENGRILASGYQDTGLTHSRTLMPIVEHILKNTDLKLSDMDAIAVAVGPG | 0.211
HMMTLEESYKLLQVSHNASDIEITKAFKKLALLYHPDKNPSNIDWANKAMASINVAYNTIITHRFKEK | -0.628
HMRTFFEIEQLKAYVGEEIQVKFEADSHKQTVLGKLISISEDFIEIENSKKGNLKISLDNYLTSKLIY | -1.6

Sequence | soluble fraction (log2)
HMGEESIAELISNPKLSDAKRTVILDLLSRGLTVDQIKPYIQSDDPYTAEQLQFELYKLFFTQI | -0.228
HMKKLPEKFDYNEISGLRIEAQQKLNEFQPLNIGQASRISGVTPADISVLLVYLEQLKYSNPDLFFKLNPD | -0.798
HMDKGEQILQQALDKLPPKQRQVFEMRYFDEMPYREIATITETSEGALKASYHHAVKKIQQYISHL | -0.397
HMETVPMIDLRGMTQEQAEKAIVGLGLTVGTVDHSSSDMPAGQVWFQSVEPKDEVAPGTKVNIIISTGS | -0.000277
HMQRGRTFSIVLNWKGRLLSTQMFFPQFTRPTKEQVTFEINKVYPGAMVYYYNPIEKDPSQPLV | -1.07
HMAGPTIVTNSQGVPNYHLVKRGDTVSQIAQRYGLNYRQIGAINNLDSKYTIYSGQWLKLWQG | -0.702
HMLIADADSLRKQIETVLANAPNEVAAYRGGKETLMGWFVGQIMRATGGKADPKLTREILAELLQ | 0.00102
HMTIFGWQQDETGKWYRNADGTFYENGWKEIDGAQYYFDENGYVTTGWLELDGKDYYFDEEGKYDSTKVR | -0.46
HMLNSLDATQRLKLNKDGVVVFNFGKYVDQSVIDIFKKEKGYYNWMMSKDFSQQVKNIITKIYQEEIIG | -0.982
HMSSPVIQINTRNDGWIIKLLQPAVEKDVLEGYLADVGLKLQSQMMEKILAAPAGTEFHIKRGSNILTE | 0.00933
HMQKPWFYESSGQRKGGFSEQEMVGLITDGEITHGAIVWRNGLSDWTKLEQTELAAHLDKTA | -0.249
HMNSVYTPDPKELAKAIKIVTAAREAEQKGQGVIAVDGRMVDAPVVSQALRILELARLAGMEVSE | 0.0244
HMIKEYEVLNYVTYEYDEIKKKLEEDFGIIVLMKEAYSDETPAGIIMDQDVEQGRIFKEGATNTITFTVS | -0.434
HMSHFRMLPSITEADAFLKSRSLPAGLEVREQVDAFLAQARQTLALAQEAPWLSKQEVLETLADEFVQTS | -0.496
HMTIEEMAIENINFSTQLLYKAMKYNGVNTVGDLLEKARSKKDLLTMAYIGNKEAEEIIEKLSELGITI | -0.23
HMRPEFVVALSGADLGKLHRLYELGEVLSREDDAEGVTHAVLRVPDKHEHAFHAEFPQARPM | 0.378
HMTPAIEKTAVIVFINGKKYYVHTVKSGETLYSIAKAYKVDEKVIKEHNPNVADGLRIDQTVKIPVPEQVK | 0.144
HMKTLDAFFDQARDAYKKLKKDGDIDNLKVLRNQLQTVRETQGDAVRKKSKEEYRRLVDIIDDIDGLLAAF | -0.102
HMDIGTRQRIIAAAMELFRQKGMDGMSMRELAERAGVNKGLLHYYFTTKEAIFREVFVHQVEM | -0.15
HMNIAESIRKYRKASGLTQEEMAKRLGVTTPAVSKWENGITNPDIALLAPIARLFHISVDTLLSYR | -0.403
HMNVNSMIGKEGRVIEDIDNFNETGRIIVDGMEWTARAVNEQSITSGQKVVIREIQGVKAMVVPM | 0.187
HMYGHKLDSYESYVVSELRRWPFLSAPQIHDRLKEHFSDLPLVTPKTVFNFVNRLRLTHSLPKE | -3.13
HMDSITEADLLRWAHALSGIARTGLGFTESRYERERYEEVLAVAADILAASSRSHDRAALVDEWLKMVGV | -1.8
HMALSETIYRLRTEHGLSQGDLAAELDVSRQSISKWETGSSVPELDKLVAMSRLFGVSLDELVLGE | -0.63
HMTFEAKKGYINADMSVNVRETASTSATVIITLNPNTEVKVVGEENDFYKIEYKEYKGYVAKRLISDSQVQ | -0.166
HMRTIVSELNDIKGISDASAKKLLIRYGSFEAVREAVMKHEEEFELDMGKRITGALTRYFYEE | -1.61

Sequence | soluble fraction (log2)
HMTGIELLSHREHQVYDLLTQGRTVTEIGAQLNLAPNTVSTYRARILEKTGTKNDVELALYAQRH | -0.209
HMEYFDDEELDRYKGRTSDSFTDDEAEEFREVMMTMHPEEVKAWNRSLILRDVAMPDQIKDDYIMLAG | -0.0408
HMNTLRFPEGTPEKDRMSIILASYNSGIGHVNDARRLARLNGEDPNSWEVVARYLQLKAQPEYYESEAVK | -0.0728
HMATEVEVPDVVGRQMALATQLLEARKLRVNVAEIYDEKTPPGQVVSQSPEAGSSVKEERVVTIYVSR | -0.0321
HMEDKQRRMGELVALLNRAAYAYYTKDEPIMADVQYDRLYDELLSLEKETGVQMADSPTHRV | -0.173
HMSKNVTMPNLVGYSMRQAKAELLSRGLHLGKLIYVNDIATNNVISQLYRNAEIEPGVKIESESYVDLVVG | -1.45
HMYSDIERAMTNAPEQFANKQAVLDFLNKNRIKKSEVDDYRIASLLKLYDDASPISKTEIISQVRT | 0.149
HMNATLSSSYPTSVVTDGEIYKLTFGLNGKYNGQEQITVKPHGDSNIYDSGGLRAYQNTQSNNVVTLN | 0.1
HMIQQFTYAFAKDKGVVVLPGRDVLTLGMRAGADPLVLLEARRALGSSFELEPLDRDTYERTLADVFTADA | -0.695
HMESSREVSFSEFMKQIDSGRVSSVKLDGETIYVRNSDGTSYKVIQPLGTDLIGVLRKSDIDVQAIKQ | -0.003
HMDNNNQAAFMGALNSLKEYAKVNGNIVTKQDVESYFKDLGLDDSKYQMITGYLLANDITVKG | 0.0282
HMKRIDTILETFAKVHKHIPSKLILLGDGPELLDMRKIARSLHIEDDVLFLGKQDQVSKFYQMADLVLLL | -0.0419
HMPLIPIAIELARHALPSLIGAIAGDKSEKVAKEVVDAALKTTGKTTPDEALHALQADPQLAHEYRLSLL | 0.287
HMSKTKDVLVQLMAERGLTQSDIARALSVRPQAVQQWVSGKTRPTGKNLEALAEFLQLPPAVIVHGP | -0.00766
HMLVGKSVIMKTNESSSGMIAGKVNYWENIDGKIYLGINGKLYDIADVDTVLDNDYYDKLVN | -0.347
HMRRDEDLAHGRELLEKELRKQGLEVSENLKQDKLLEGAKRLGFLEAEDLVVAVGSGKVSAGMAVGRIIG | 0.16
HMAVTKVKVITESSNLNIRKGPGTDQPIVGKAAHHEIITLVNKSNDQWWLVRTNDGEEGYSYSRYLEPVT | -0.39
HMSFVEVTVSELKNYVNSHARIKLKSGKEFKGFILDANEEGVIIKVQLRGGTAESTISYNRIDRAAVF | -1.69
HMNQYALTDREKNVLGLLVDGLSYKMIADKENISFHTVNAHVRKIYEKLHVHSLAEAVSKALKENL | -1.29
HMNNTIKFSVDTTNSGKRLDIFLAENIKQFTRSYLKKIISNNQVKLNNLVANSPSIKVKHSDLILINILE | -1.82
HMGNLIIFYDEGIGSGPLMKAVNDSGVSLVYEYKNLHGIAIRPSAKTNIQDAIAYFQKVNGVLSVEQ | -2.52
HMIGITTANLNVRTGTDTNYTSIAILPKGTKVNILEENVKPGWYKIQFDEIYAFVSSKYIKIQS | -1.12
HMDTGPISGQVEADRVEVHGHLDGKISAQNVVVGQTGVVKGDIEFGENLRTEEGADIEGYIK | -0.149
HMGGPEVLELEDVKVGSPGPDEIKVTNHAIGLNYIDTYHRSGLYPLKLPSGIGLEAAGKVEEIGSNV | 0.0604
